Results published in patent US20100285037A1 (ARCA BIOPHARMA, published 2010).

B1: chimeric anti-CLL-1 monoclonal antibody 1075.7 (antibody, human IgG1, V domains shown)
VH: DIQLQESGPGLVKPSQSLSLTCSVTGYSITSAYYWNWIRQFPGNKLEWMGYISYDGRNNYNPSLKNRISITRDTSKNQFFLKLNSVTTEDTATYYCAKEGDYDVGNYYAMDYWGQGTSVTVSS
VL: ENVLTQSPAIMSASPGEKVTMTCRASSNVISSYVHWYQQRSGASPKLWIYSTSNLASGVPARFSGSGSGTSYSLTISSVEAEDAATYYCQQYSGYPLTFGAGTKLELKR
notes: No cleavage site is stated; also called mAb 1075.7; clone #1075.7
B2: chimeric anti-CLL-1 monoclonal antibody 21.16 (antibody, human IgG1, V domains shown)
VH: QVQLQQPGAELVKPGTSVKLSCKASGYTFTRYWMHWVKQRPGQGLEWIGMIHPSSGSTSYNEKVKNKATLTVDRSSTTAYMQLSSLTSEDSAVYYCARDGDYYYGTGDYWGQGTTLTVSS
VL: QIVLSQSPAILSASPGEKVTMTCRASSSINYMHWYQQKPGSSPKPWIFATSNLASGVPSRFSGSGSGTSYSLTISRVEAEDAATYYCQQWRSDRALTFGAGTKLELIR
notes: No cleavage site is stated; also called mAb 21.16; VL1VH1

Columns and labels:
[1] = target: T1, CLL-1-ECD-V5His recombinant protein (human, UniProt Q5QGZ9 67-265); assay: SPR (BIAcore), mAb captured via anti-mouse mAb, antigen in solution, 25° C.; KD = kd/ka
T1 construct: also called recombinant CLL-1 protein; CLL-1 V5-6His protein; not shown: C-terminal V5-His tag
T1 sequence: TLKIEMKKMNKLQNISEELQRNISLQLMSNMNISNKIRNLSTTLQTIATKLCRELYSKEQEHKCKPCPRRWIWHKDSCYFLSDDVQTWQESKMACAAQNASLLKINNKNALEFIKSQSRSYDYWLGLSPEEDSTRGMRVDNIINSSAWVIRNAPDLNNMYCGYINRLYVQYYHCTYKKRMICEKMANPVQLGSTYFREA
Procedure: (§1) Kinetic rate constants (kₐ and kd) were determined using surface plasmon resonance and affinities (KD) were then calculated from the rate constants (kd/kₐ). Surface plasmon resonance was carried out on a BlAcore system (Biacore International AB, Uppsala, Sweden). Chimeric monoclonal antibodies (21.16 or 1075.7) were diluted to 2 μg/ml and then captured on the biosensor surface using an anti-mouse mAb. Antigen was diluted to a starting concentration of 46 nM and tested for binding to the mAb samples using a 3-fold dilution series. Each of 5 concentrations was tested twice except the highest concentration which was tested 5 times in total, two times with a short dissociation of 300 seconds followed by three times with a dissociation of 60 minutes. The data sets from the long dissociation experiments were globally fit with the shorter association experiments to determine binding constants for the interactions. The analysis was carried out in HBS, pH 7.4 buffer at 25° C. (Canziani et al, Anal. Biochem. 352:301-307 (2004)).

[2] = target: T1, CLL-1-ECD-V5His recombinant protein; assay: SPR (BIAcore), mAb captured via anti-mouse mAb, antigen in solution, 25° C.
Procedure: as §1

[3] = target: T2, CLL-1 on cells (HEK293 cells stably transfected with CLL-1; HL-60 and other AML cells) (human, UniProt Q5QGZ9 1-265); assay: cell-based or functional assay
T2 sequence: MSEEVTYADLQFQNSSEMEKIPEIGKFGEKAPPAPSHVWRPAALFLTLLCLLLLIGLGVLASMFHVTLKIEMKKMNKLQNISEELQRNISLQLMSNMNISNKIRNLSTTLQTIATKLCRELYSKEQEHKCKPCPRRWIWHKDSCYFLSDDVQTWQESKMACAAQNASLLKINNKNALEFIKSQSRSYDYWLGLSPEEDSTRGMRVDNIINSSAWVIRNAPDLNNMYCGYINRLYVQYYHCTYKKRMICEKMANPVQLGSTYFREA

Row | Binder | Kd [1] | koff [2] | kon [2] | EC50 of complement-dependent cytotoxicity (CDC) on OCI-AML5 cells [3] | EC50 of ex vivo cytotoxicity on patient AML sample 'M1' [3] | EC50 of ex vivo cytotoxicity on patient AML sample 'M5a' [3] | complement-dependent cytotoxicity (CDC), EC50, HEK293 cells expressing CLL-1 [3]
1 | B1 | 0.36 nM | 0.00015 s⁻¹ | 417000 M⁻¹ s⁻¹ |  |  |  | 
2 | B2 |  |  | 554000 M⁻¹ s⁻¹ | ~0.0071 µg/mL | 0.284 µg/mL | 0.146 µg/mL | ~0.088 µg/mL
